Experimental data published in patent US20260217800A1.

Biological target: full length gp41 HIV protein (Abcam) (human immunodeficiency virus-1 (HIV-1))
Experiment: titration ELISA, wells coated with 1 µg/mL antigen, 2F5 in 4-fold dilutions from 30 µg/mL

Q: “2F5 broadly neutralizing human monoclonal antibody” was tested. Which EC50 (read off the curve) did it give?
A: 0.1 µg/mL
